According to article PMC3963902, “Esterase LpEst1 from Lactobacillus plantarum: A Novel and Atypical Member of the αβ Hydrolase Superfamily of Enzymes” (PLoS ONE, 2014):

Experiments:
[1] = substrate: CC(=O)Oc1ccc([N+](=O)[O-])cc1; experiment: spectrophotometric p-nitrophenol release; type: biochemical, Lactiplantibacillus plantarum; conditions: 50 mM sodium phosphate, pH 7.0, 30 °C
From the text: (§1) spectrophotometric p-nitrophenol release on LpEst1

[2] = substrate: CCCC(=O)Oc1ccc([N+](=O)[O-])cc1; experiment: spectrophotometric p-nitrophenol release; type: biochemical, Lactiplantibacillus plantarum; conditions: 50 mM sodium phosphate, pH 7.0, 30 °C
From the text: as §1

B1: LpEst1 (Lactiplantibacillus plantarum) (protein)
chain: MPTINSIQTTVNGVVKIVKPFNNDIAGEQFDPHVLQTLTAFKQPAILENDLAALRSGSLTPAIADPVGDAVTVQSRNITALNRTVSVEWLTPQNVINHTVLVYFHGGAFYGGVPGNNTVLLKLVAAKSHCEILNVDYSLAPEAPAPAGILDGLAIFQYLEQRDAETMITVAGDSAGANVIMAATNLNQQLGSNRINQQLLLYPVTAPNADHAGPLWDLAAFPIIDSQRAILTNYHDLFRQLDSIMTDYYVPENFDSHSPLISPLHQENFTMTPPTTIMVGEFDPFRPQAWAYAQRLAAADTATTFIQYQGLNHAFAPLVDQYWQSQDVAQVMAAALI
notes: homodimer
For B1, the Km [1] was 380 ± 50 µM, the Vmax [1] was 75 µmol/min/mg and the kcat [1] was 40.4 ± 2 s⁻¹. For the same protein, the Km [2] was 200 ± 100 µM, the Vmax [2] was 8 µmol/min/mg and the kcat [2] was 4.4 ± 0.3 s⁻¹.
